# Bridges are numbered along the chain shown (N, C = ends).
# B1: Retrocyclin-1 (RC-100) (peptide)
# peptide: cyclo(GICRCICGRGICRCICGR)
# modifications: disulfide 7-12, 5-14, 3-16
# SMILES: CC[C@H](C)[C@@H]1NC(=O)CNC(=O)[C@H](CCCNC(=N)N)NC(=O)CNC(=O)[C@@H]2CSSC[C@H](NC1=O)C(=O)N[C@@H](CCCNC(=N)N)C(=O)N[C@H]1CSSC[C@H](NC(=O)[C@H](CCCNC(=N)N)NC(=O)[C@@H]3CSSC[C@H](NC(=O)[C@H]([C@@H](C)CC)NC1=O)C(=O)NCC(=O)N[C@@H](CCCNC(=N)N)C(=O)NCC(=O)N[C@@H]([C@@H](C)CC)C(=O)N3)C(=O)N[C@@H]([C@@H](C)CC)C(=O)N2
# notes: Made by solid phase synthesis, then oxidized and cyclized; also called Retro1
# B2: RC-101 (R9K-Retrocyclin) (peptide)
# peptide: cyclo(GICRCICGKGICRCICGR)
# modifications: disulfide (positions not given here)
# notes: Synthetic cyclic congener of retrocyclin; It was unlabelled in the SPR experiments
# How the values were obtained:
# [1] = target: T1, Recombinant human soluble CD4 (full-length 45 kDa glycosylated ectodomain) (human, UniProt P01730 26-396); experiment: SPR (Biacore 2000), soluble CD4 immobilized on CM5 chip, peptide in flow, 1:1 fit
# T1 construct: extracellular domain; Immobilized on a CM5 chip by amine coupling
# [2] = target: T2, Recombinant HIV-1 BaL gp120 (HIV-1 (BaL)); experiment: SPR (Biacore 2000), gp120 BaL immobilized on chip, peptide in flow, 1:1 fit
# T2 construct: domain: gp120; also called gp120(BaL); gp120 BaL
# [3] = target: T3, Glycosylated HIV-1 gp120 (LAV) envelope glycoprotein (HIV-1 (LAV), UniProt P03377 33-516, limits assumed, glycosylated); experiment: SPR (Biacore 2000), gp120 LAV immobilized on CM5 chip, peptide in flow, 1:1 fit
# T3 construct: domain: gp120; Bought
# Description: Surface plasmon resonance (SPR) experiments were done with a Biacore 2000 system (Biacore, Inc., Piscataway, N.J.). The running buffer (pH 7.4) contained 10 mM HEPES, 150 mM NaCl, 3 mM EDTA and 0.005% polysorbate 20. The immobilized proteins (gp120-LAV and CD4) were dissolved at 20 μg/ml in 10 mM sodium acetate, pH 5.0 and immobilized on a Biacore CM5 sensor chip using the amine coupling method. The chip was activated by mixing 400 mM EDC (N-ethyl-N-(3-dimethylaminopropyl)-carbodiimide hydrochloride) and 100 mM N-hydroxysuccinimide. An immobilization level of 6000 response units (RU) was attained for each bound protein. Residual reactive groups on the chip surface were blocked using 1.0 Methanolamine/HCl, pH 8.5.
# In those experiments, biosensor chips containing immobilized gp120 or CD4 were perfused with a 1 μg/ml solution of the peptides, and binding was measured by surface plasmon resonance.
binder,measurement,setting,value
B1,Kd,[1],31 nM
same,Kd,[2],29.2 nM
same,Kd,[3],35.4 nM
B2,Kd,[1],28.6 nM
same,Kd,[2],20.5 nM
same,Kd,[3],31.2 nM

# Reference: patent publication US20090264344A1 (University of California, published 2009)
